Laboratory results taken from CN110974958A (BEIJING DONGFANG BIOTECH CO LTD, dated 2020).

Legend:
[1] = target: T1, PD-L1-Fc (UniProt Q9NZQ7 19-238, limits assumed); assay: competition ELISA, PD-L1-Fc coated 200 ng/well, competitor PD-1-His 5 ug/ml, anti-His-HRP
T1 construct: not shown: Fc part

[2] = target: T2, PD-L1 (UniProt Q9NZQ7 19-238, limits assumed); assay: ELISA, PD-L1 coated 100 ng/well, full antibody titrated from 1 ug/ml, Anti-Human Fc-HRP
T2 construct: Coated antigen of experiments 1 and 3; also called 程序性死亡分子1配体; CD274
T2 sequence (Q9NZQ7 19-238 limits assumed): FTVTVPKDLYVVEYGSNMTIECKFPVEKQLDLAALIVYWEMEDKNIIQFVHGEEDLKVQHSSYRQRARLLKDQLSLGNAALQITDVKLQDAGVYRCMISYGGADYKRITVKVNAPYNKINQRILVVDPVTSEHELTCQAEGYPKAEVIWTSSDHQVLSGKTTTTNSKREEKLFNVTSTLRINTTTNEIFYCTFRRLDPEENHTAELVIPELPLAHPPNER

[3] = target: T2, PD-L1; assay: cell-based or functional assay

T1 sequence (Q9NZQ7 19-238 limits assumed): as above

| Binder | IC50 [1] [ng/mL] | EC50 [2] [ng/mL] | EC50(ng/ml), 混合淋巴细胞反应(MLR), CD4+ T细胞增殖 (cck8) [3] [ng/mL] |
| --- | --- | --- | --- |
| BH2-B11 全抗体 (full antibody, human IgG1/kappa) (antibody, V domains shown, Full antibody expressed in HEK293E from vector pTSE) VH: EVQLVESGGGLVQPGGSLRLSCAASGLTWSDSYKHWVRQAPGKGLEWVHWNSTYGGSTYYADSVKGRFTISADTSKNTAYLQMNSLRAEDTAVYYCARRHFASTWDYWGQGTLVTVSS VL: DIQMTQSPSSLSASVGDRVTITCRASQNIHNSLAWYQQKPGKAPKLLIYGASSLESGVPSRFSGSGSGTDFTLTISSLQPEDFATYYCQQERRVPWTFGQGTKVEIKR | 61.2 | 0.535 | 6.73 |
| AC9-E3 全抗体 (full antibody, human IgG1/kappa) (antibody, V domains shown, Full antibody expressed in HEK293E from vector pTSE) VH: EVQLVESGGGLVQPGGSLRLSCAASGCTWSDSWDHWVRQAPGKGLEWVDYESTYGGSTYYADSVKGRFTISADTSKNTAYLQMNSLRAEDTAVYYCARRHWNATFDYWGQGTLVTVSS VL: DIQMTQSPSSLSASVGDRVTITCRASQSIHNYLAWYQQKPGKAPKLLIYSASNLPSGVPSRFSGSGSGTDFTLTISSLQPEDFATYYCQQGLHTPPTFGQGTKVEIKR | 138 | 2.17 | 11.9 |
| AH10-E3 全抗体 (full antibody, human IgG1/kappa) (antibody, V domains shown, Full antibody expressed in HEK293E from vector pTSE) VH: EVQLVESGGGLVQPGGSLRLSCAASGWTLSDSLQHWVRQAPGKGLEWVGFQSAYGGSTYYADSVKGRFTISADTSKNTAYLQMNSLRAEDTAVYYCARRHYYTAWDYWGQGTLVTVSS VL: DIQMTQSPSSLSASVGDRVTITCRASQSIHNYLAWYQQKPGKAPKLLIYSASNLPSGVPSRFSGSGSGTDFTLTISSLQPEDFATYYCQQGLHTPPTFGQGTKVEIKR | 136 | 1.91 | 11.4 |
| AH10-B11 全抗体 (full antibody, human IgG1/kappa) (antibody, V domains shown, Full antibody expressed in HEK293E from vector pTSE; also called AH10-811) VH: EVQLVESGGGLVQPGGSLRLSCAASGWTLSDSLQHWVRQAPGKGLEWVGFQSAYGGSTYYADSVKGRFTISADTSKNTAYLQMNSLRAEDTAVYYCARRHYYTAWDYWGQGTLVTVSS VL: DIQMTQSPSSLSASVGDRVTITCRASQNIHNSLAWYQQKPGKAPKLLIYGASSLESGVPSRFSGSGSGTDFTLTISSLQPEDFATYYCQQERRVPWTFGQGTKVEIKR | 108 | 1.43 | 9.88 |
| AC9-B11 全抗体 (full antibody, human IgG1/kappa) (antibody, V domains shown, Full antibody expressed in HEK293E from vector pTSE) VH: EVQLVESGGGLVQPGGSLRLSCAASGCTWSDSWDHWVRQAPGKGLEWVDYESTYGGSTYYADSVKGRFTISADTSKNTAYLQMNSLRAEDTAVYYCARRHWNATFDYWGQGTLVTVSS VL: DIQMTQSPSSLSASVGDRVTITCRASQNIHNSLAWYQQKPGKAPKLLIYGASSLESGVPSRFSGSGSGTDFTLTISSLQPEDFATYYCQQERRVPWTFGQGTKVEIKR | 82 | 0.574 | 7.58 |
| BH2-E3 全抗体 (full antibody, human IgG1/kappa) (antibody, V domains shown, Full antibody expressed in HEK293E from vector pTSE) VH: EVQLVESGGGLVQPGGSLRLSCAASGLTWSDSYKHWVRQAPGKGLEWVHWNSTYGGSTYYADSVKGRFTISADTSKNTAYLQMNSLRAEDTAVYYCARRHFASTWDYWGQGTLVTVSS VL: DIQMTQSPSSLSASVGDRVTITCRASQSIHNYLAWYQQKPGKAPKLLIYSASNLPSGVPSRFSGSGSGTDFTLTISSLQPEDFATYYCQQGLHTPPTFGQGTKVEIKR | 92.7 | 1.23 | 7.71 |
